Experimental findings from article PMC2824085, “Identification of Novel Contributions to High-affinity Glycoprotein–Receptor Interactions using Engineered Ligands” (Journal of Molecular Biology, 2010) are described below.

One series has as its target T1, soybean agglutinin (soybean, UniProt P05046 33-285, a single, uniform Man9GlcNAc2 oligosaccharide on each subunit).
T1 construct: also called SBA; intact soybean agglutinin
Kind of series: SPR; BiaCore 3000, CM5 chip; SBA or its glycopeptide amine-coupled, monomeric CRD of DC-SIGN flowed over; steady state, simple saturation model with linear background; 10 mM Hepes, 150 mM NaCl, 5 mM CaCl2, 0.005% P20, pH 7.4, 25 °C. Conditions: both partners purified.

Series [1] concerns the molecule itself. Kind of series: cross-linking + SEC; chemical crosslinking and gel filtration of the extracellular domain of MGL expressed in bacteria. Background: Size exclusion chromatography separates by hydrodynamic size, large species first.

T1 sequence (P05046 33-285): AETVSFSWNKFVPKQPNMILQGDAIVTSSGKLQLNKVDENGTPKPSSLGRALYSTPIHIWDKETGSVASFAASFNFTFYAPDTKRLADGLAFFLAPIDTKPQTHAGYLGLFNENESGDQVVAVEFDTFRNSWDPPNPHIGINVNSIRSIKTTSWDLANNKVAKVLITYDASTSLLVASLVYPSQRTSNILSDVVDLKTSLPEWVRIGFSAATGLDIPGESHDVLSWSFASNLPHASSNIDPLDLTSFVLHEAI

B1: monomeric carbohydrate-recognition domain (CRD) from DC-SIGN (domain or fragment, UniProt Q9NNX6 250-404, looked up)
chain: ERLCHPCPWEWTFFQGNCYFMSNSQRNWHDSITACKEVGAQLVVIKSAEEQNFLQLQSSRSNRFTWMGLSDLNQEGTWQWVDGSPLLPSFKQYWNRGEPNNVGEEDCAEFSGNGWNDDKCNLAKFWICKKSAASCSRDEEQFLSPAPATPNPPPA
notes: DC-SIGN, carbohydrate-recognition domain; it calls the CRD monomeric; also called monomeric CRD; dendritic cell-specific intercellular adhesion molecule 3-grabbing nonintegrin CRD
Molecule B1 displayed a Kd with soybean agglutinin of 4 µM.

B2: trimeric extracellular domain (ECD) of rat macrophage galactose lectin (MGL) (domain or fragment)
chain: AQNSQLRRDLETLRTTLDNTTSNTKAELQALASRGDSLQTGINSLKVEVDDHGQELQAGRGLSQKVASLESTVEKKEQTLRTDLSEITDRVQQLGKDLKTLTCQLASLKNNGSAVACCPLHWMEHEGSCYWFSQSGKPWPEADKYCQLENSNLVVVNSLAEQNFLQTHMGSVVTWIGLTDQNGPWRWVDGTDYEKGFTHWAPKQPDNWYGHGLGGGEDCAHFTSDGRWNDDVCQRPYRWVCEMKLAKDS
notes: extra alanine residue appended at the N-terminus; rat macrophage galactose lectin, extracellular domain from residue 59 to the C-terminus; also called extracellular domain of MGL; source: expressed in bacteria, T7 promoter system
Regarding B2, in series [1], the “stoichiometry N” value was 3.

Usually Kd stands for a measure of binding affinity in units of concentration. Higher therefore signals lower affinity. As a reminder, the stoichiometry N is a count of units in the complex or per binding partner.
